Experiments:
[1] = molecular target: extracellular domain of human LEPR, GPI-anchored on HEK293/hLEPR-GPI cells (human) (UniProt P48357); assay: FACS, 200 nM antibody, HEK293/hLEPR-GPI cells, No Leptin
[2] = molecular target: extracellular domain of human LEPR, GPI-anchored on HEK293/hLEPR-GPI cells (human) (UniProt P48357); assay: FACS, 200 nM antibody, HEK293/hLEPR-GPI cells, 1 µM Leptin present
[3] = molecular target: full length human GP130 (leucine at position 2 changed to valine) on HEK293/Stat3-luc/gp130-2X Sort cells (human) (UniProt P40189); assay: FACS, 200 nM antibody, HEK293/gp130 2X Sort cells
[4] = molecular target: extracellular domain of human LEPR, GPI-anchored on HEK293/hLEPR-GPI cells (human) (UniProt P48357); assay: FACS, secondary antibody only, HEK293/hLEPR-GPI cells, No Leptin
[5] = molecular target: full length human GP130 (leucine at position 2 changed to valine) on HEK293/Stat3-luc/gp130-2X Sort cells (human) (UniProt P40189); assay: FACS, secondary antibody only, HEK293/gp130 2X Sort cells
[6] = molecular target: extracellular domain of human LEPR, GPI-anchored on HEK293/hLEPR-GPI cells (human) (UniProt P48357); assay: FACS, secondary antibody only, HEK293/hLEPR-GPI cells, 1 µM Leptin present
[7] = molecular target: gp130 expressed endogenously on IMR-32/STAT3-Luc cells (human) (UniProt P40189); assay: FACS, secondary antibody alone, IMR-32/Stat3-luc cells, no hGP130.mmh
[8] = molecular target: full length (FL) human gp130 over-expressed on HEK293/Stat3-luc/gp130-2X Sort cells (human) (UniProt P40189); assay: FACS, secondary antibody alone, 293/Stat3-luc/GP130 2X sort cells
[9] = molecular target: gp130 expressed endogenously on IMR-32/STAT3-Luc cells (human) (UniProt P40189); assay: FACS, secondary antibody alone, IMR-32/Stat3-luc cells, 1 uM hGP130.mmh present
[10] = molecular target: gp130 expressed endogenously on IMR-32/STAT3-Luc cells (human) (UniProt P40189); assay: cell-based or functional assay

Chain of gp130 expressed endogenously on IMR-32/STAT3-Luc cells (human) (P40189 23-918): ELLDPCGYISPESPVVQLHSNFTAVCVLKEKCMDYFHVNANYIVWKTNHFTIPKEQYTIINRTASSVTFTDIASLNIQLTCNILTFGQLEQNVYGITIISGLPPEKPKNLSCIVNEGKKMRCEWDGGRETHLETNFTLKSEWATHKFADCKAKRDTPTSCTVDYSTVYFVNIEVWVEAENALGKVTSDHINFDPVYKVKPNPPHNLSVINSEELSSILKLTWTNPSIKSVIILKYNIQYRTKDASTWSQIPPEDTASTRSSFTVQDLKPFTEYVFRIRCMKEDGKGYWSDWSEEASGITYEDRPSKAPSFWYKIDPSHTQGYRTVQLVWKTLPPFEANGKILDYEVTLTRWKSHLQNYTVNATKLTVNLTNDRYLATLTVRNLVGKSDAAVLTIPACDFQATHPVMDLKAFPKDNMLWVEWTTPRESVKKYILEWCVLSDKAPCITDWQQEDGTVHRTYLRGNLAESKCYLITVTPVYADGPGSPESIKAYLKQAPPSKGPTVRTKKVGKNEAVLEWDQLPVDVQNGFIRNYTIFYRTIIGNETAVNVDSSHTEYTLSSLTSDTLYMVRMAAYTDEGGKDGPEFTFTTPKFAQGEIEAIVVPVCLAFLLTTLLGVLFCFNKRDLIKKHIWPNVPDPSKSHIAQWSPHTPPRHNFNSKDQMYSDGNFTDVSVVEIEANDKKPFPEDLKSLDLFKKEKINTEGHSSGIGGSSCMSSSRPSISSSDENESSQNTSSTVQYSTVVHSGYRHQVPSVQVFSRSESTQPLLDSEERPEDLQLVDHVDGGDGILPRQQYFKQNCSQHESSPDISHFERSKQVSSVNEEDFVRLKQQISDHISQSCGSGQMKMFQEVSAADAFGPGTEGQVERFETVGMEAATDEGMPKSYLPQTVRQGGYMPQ
Chain of extracellular domain of human LEPR, GPI-anchored on HEK293/hLEPR-GPI cells (human) (P48357 22-839 limits assumed): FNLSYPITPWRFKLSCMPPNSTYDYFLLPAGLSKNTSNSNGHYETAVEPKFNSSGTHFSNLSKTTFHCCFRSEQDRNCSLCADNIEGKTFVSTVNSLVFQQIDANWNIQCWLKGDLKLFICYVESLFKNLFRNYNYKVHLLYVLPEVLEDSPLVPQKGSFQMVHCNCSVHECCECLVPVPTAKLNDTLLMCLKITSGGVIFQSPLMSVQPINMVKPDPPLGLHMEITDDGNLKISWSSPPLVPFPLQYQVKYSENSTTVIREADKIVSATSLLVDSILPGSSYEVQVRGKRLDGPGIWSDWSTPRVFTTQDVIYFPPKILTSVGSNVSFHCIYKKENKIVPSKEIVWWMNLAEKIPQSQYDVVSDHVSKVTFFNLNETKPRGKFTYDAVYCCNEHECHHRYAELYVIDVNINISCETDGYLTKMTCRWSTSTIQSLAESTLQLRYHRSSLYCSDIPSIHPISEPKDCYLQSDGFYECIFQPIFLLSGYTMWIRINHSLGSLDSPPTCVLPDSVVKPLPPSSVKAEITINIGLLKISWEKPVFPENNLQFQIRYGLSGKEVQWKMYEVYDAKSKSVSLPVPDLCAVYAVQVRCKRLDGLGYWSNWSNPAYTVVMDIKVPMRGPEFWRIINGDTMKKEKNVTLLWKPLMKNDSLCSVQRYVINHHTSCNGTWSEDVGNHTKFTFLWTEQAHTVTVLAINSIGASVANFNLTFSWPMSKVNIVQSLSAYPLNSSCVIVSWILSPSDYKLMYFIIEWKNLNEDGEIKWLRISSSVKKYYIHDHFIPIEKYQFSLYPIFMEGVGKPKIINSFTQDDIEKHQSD
Chain of full length human GP130 (leucine at position 2 changed to valine) on HEK293/Stat3-luc/gp130-2X Sort cells (human) (P40189 23-918): as the sequence (P40189 23-918) above
Chain of full length (FL) human gp130 over-expressed on HEK293/Stat3-luc/gp130-2X Sort cells (human) (P40189 23-918): as above

## Isotype Control (antibody)
[1]
  Binding Ratio: Normalized to Unstained Sample of Each Cell Line (FL4-A): 3
[2]
  Binding Ratio: Normalized to Unstained Sample of Each Cell Line (FL4-A): 3
[3]
  Binding Ratio: Normalized to Unstained Sample of Each Cell Line (FL4-A): 2

## Secondary antibody alone
[4]
  Binding Ratio: Normalized to Unstained Sample of Each Cell Line (FL4-A): 3
[5]
  Binding Ratio: Normalized to Unstained Sample of Each Cell Line (FL4-A): 1
[6]
  Binding Ratio: Normalized to Unstained Sample of Each Cell Line (FL4-A): 2

## a-h 2″ alone (antibody)
[7]
  MFI - Normalized to Unstained Control: 4
[8]
  MFI - Normalized to Unstained Control: 2
[9]
  MFI - Normalized to Unstained Control: 8

## human Leukemia Inhibitory Factor (from UniProt P15018 23-202) (ligand)
[10]
  EC50 of activation of IMR-32/STAT3-luc cells (STAT3-luciferase): 0.023 nM
